From US20090275085A1, “Enzyme for Obtaining Prebiotic Oligosaccharides” (CONSEJO SUPERIOR DE INVESTIGACIONES CIENTIFICAS, priority 2004, published 2009)

Key:
[1] = substrate: OC[C@H]1O[C@H](O[C@H]2[C@H](O)[C@@H](O)[C@@H](O[C@H]3[C@H](O)[C@@H](O)[C@@H](O[C@H]4[C@H](O)[C@@H](O)[C@@H](O[C@H]5[C@H](O)[C@@H](O)[C@@H](O[C@H]6[C@H](O)[C@@H](O)[C@@H](O[C@H]7[C@H](O)[C@@H](O)C(O)O[C@@H]7CO)O[C@@H]6CO)O[C@@H]5CO)O[C@@H]4CO)O[C@@H]3CO)O[C@@H]2CO)[C@H](O)[C@@H](O)[C@@H]1O; assay: Kinetic constants of X. dendrorhous α-glucosidase glycosylhydrolase activity; format: biochemical, Xanthophyllomyces dendrorhous; details: other: 30 minutes, 100 ng of enzyme; starch supplied by Avebe, 8100 Da
Method: The tests were carried out in 30 minutes and with 100 ng of enzyme for each reaction.

[2] = substrate: OC[C@H]1O[C@H](O[C@H]2[C@H](O)[C@@H](O)[C@@H](O[C@H]3[C@H](O)[C@@H](O)C(O)O[C@@H]3CO)O[C@@H]2CO)[C@H](O)[C@@H](O)[C@@H]1O; assay: purified protein, by the assay type; details: other: 30 minutes, 100 ng of enzyme; starch supplied by Avebe, 8100 Da

B1: X. dendrorhous α-glucosidase (purified enzyme) (Phaffia rhodozyma) (protein)
chain: SSPSSFQGPSELLSNQKRYSKRDNTGSYSLNTTACGGYSVSSVDSTGNGLQAHLSLNGEPCRAFGVDYTDLLVDVEYQTQERIRVHIYDADKIEFQVPENIFPKPQSDNGLDLNQTDLVFNHQENPFAFWITRRNASDDETPIFDTRPSSKTSVDYPIEPPYGGVEKVNSSTAVPDESGGLVFEAGYLEISSFLPKDANIFGLGEVVATSGFRRNSSATVQTMWARDVGDPENQNMYGDHPIYIETRFNKNGASSSHGVFLLNSEGMDIVLRDEVIEYRPLGGSLDFYFISGPTPIKVIEQYSEISGRSLLHPYWSYGFHLCRWGYDNITQNREIVQSMKDANLPLETFWNDIDWMDTYRNFVPAPNRFEPADYKAFVDELHANNQHYIPIIDAAIGVVTNDTDVYDTFTAGDAANTYIKNPDGSNYIGKVWPGYTVFPDWFQNSTQDWWTEAFINYSQIVEFDGIWIDMNEPSSFCEGSCGSSADLNNITPPFLLPGQPGAVTLIDGTFPEGYNATLWGYSGNLTINGSLTFNSTPPNYGRPDRRSQLSRRVGQGVDVNTPAYEIHNALDKLAISTVSPNATHLNGDIQDIDVHNLFGYMEGIATFNVWNTYKPNKRPFIVSRSTFPGAGTKVAHWLGDNYSTWKYLRYVNQGVLQFQIYGIPMVGADTCGFAGNTDEELCNRWMQLAAFYPFFRNHNIKSALAQEPFRWDSVAEATRNATAIRYALLPYWYTLFYQASSVGTPPIRALFYEFDQEELLSVDAQFLVGRNVLVTGAMYPNITSVEGYLPGGDDEIWRDWYTHEVIKPTSDDGKYDFPAPLGHIPVTIRSGAIFLLHSEPGMTVYDTRESPYSILVSLDKSSEAEGYAFIDDGESFPVTDSREVHLGAAEGKVYGWTSGSYNVGQKLAQVTVLGVKTEPSTVTFNGQAITTGWTYEADLERFVVTGLQGDLNGGWELDWA
Km [1]: 860 µM | kcat [1]: 5 s⁻¹ | kcat/Km [1]: 5800 M⁻¹ s⁻¹ | Km [2]: 550 µM | kcat [2]: 4 s⁻¹ | kcat/Km [2]: 7270 M⁻¹ s⁻¹
